Our source for the EC50 of antibody induced phagocytosis of amyloid values is patent US20080292639A1.

The experiment deals with native amyloid plaques in unfixed brain sections of Tg2576 APP transgenic mice (human) (UniProt P05067). The experiment in a line: cell-based or functional assay.
Chain of native amyloid plaques in unfixed brain sections of Tg2576 APP transgenic mice (human) (P05067 672-713 limits assumed): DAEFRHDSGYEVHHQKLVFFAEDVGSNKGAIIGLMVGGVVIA

Consider mAb 6E10 (antibody), for which the EC50 of antibody induced phagocytosis of amyloid stood at 5 µg/mL.
Under “mAb 4G8 (commercially available anti-Aβ antibody)” stands 0.8 µg/mL.
